# Laboratory results published in publication PMC12151148 (2024).
# No end group written: not given here.
# T1: Gαi3⋅GDP (human, UniProt P08754 1-354)
# T1 chain: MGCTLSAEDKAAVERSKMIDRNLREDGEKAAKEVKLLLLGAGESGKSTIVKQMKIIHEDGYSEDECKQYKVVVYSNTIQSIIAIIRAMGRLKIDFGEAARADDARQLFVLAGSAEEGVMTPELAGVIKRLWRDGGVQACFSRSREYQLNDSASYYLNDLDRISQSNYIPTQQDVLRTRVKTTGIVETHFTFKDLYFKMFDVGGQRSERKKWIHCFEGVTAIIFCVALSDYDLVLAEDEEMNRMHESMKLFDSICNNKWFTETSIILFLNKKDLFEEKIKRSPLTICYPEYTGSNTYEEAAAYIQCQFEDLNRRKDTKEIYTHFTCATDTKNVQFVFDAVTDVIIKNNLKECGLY
# T2: FL-LGN-4E (mouse, UniProt Q8VDU0)
# T2 sequence (Q8VDU0 whole entry, looked up): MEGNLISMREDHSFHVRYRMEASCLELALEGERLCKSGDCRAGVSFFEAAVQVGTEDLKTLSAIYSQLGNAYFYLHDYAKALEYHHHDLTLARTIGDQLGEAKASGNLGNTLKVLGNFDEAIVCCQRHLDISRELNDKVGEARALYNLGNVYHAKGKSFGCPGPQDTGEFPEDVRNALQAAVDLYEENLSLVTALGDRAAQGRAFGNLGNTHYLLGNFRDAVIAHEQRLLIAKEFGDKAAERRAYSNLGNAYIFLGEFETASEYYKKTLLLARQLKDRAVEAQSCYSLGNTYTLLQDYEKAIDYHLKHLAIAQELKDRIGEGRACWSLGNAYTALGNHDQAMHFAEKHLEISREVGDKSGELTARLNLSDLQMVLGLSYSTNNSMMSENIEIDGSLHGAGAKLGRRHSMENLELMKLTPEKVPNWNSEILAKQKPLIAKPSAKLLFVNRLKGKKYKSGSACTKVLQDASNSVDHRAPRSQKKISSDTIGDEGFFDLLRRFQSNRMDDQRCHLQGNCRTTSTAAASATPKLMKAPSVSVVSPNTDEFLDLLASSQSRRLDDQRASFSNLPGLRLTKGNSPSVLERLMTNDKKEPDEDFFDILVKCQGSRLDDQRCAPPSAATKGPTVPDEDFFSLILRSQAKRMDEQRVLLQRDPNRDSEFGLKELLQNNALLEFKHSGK
# T3: LGN-TPR (1–409) (mouse)
# T3 chain: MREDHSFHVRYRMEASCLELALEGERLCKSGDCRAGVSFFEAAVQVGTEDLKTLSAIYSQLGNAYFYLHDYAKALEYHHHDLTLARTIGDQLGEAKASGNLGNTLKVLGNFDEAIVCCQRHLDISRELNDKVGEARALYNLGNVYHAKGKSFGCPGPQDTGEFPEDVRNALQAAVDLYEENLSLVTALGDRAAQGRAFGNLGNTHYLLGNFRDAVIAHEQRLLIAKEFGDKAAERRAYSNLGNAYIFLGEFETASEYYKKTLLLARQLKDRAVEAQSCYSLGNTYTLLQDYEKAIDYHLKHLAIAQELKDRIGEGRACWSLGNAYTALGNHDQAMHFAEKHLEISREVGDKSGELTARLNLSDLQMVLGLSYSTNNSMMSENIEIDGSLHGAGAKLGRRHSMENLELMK
# T4: AGS3-L (−23–405) (mouse)
# T4 chain: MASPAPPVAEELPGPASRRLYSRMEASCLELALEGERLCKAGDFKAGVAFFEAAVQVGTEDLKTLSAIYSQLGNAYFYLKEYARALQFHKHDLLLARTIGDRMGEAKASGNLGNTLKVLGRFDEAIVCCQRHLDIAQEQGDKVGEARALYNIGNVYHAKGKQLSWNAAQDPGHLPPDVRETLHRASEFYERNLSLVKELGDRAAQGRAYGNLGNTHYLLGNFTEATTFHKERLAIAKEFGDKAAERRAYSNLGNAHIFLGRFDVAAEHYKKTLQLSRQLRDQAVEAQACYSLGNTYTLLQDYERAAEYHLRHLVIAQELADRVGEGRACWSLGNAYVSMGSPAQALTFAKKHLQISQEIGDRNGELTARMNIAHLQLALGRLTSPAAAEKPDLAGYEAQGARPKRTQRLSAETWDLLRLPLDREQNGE
# T5: FL-AGS3-4E (mouse, UniProt Q6IR34)
# T5 sequence (Q6IR34 whole entry, looked up): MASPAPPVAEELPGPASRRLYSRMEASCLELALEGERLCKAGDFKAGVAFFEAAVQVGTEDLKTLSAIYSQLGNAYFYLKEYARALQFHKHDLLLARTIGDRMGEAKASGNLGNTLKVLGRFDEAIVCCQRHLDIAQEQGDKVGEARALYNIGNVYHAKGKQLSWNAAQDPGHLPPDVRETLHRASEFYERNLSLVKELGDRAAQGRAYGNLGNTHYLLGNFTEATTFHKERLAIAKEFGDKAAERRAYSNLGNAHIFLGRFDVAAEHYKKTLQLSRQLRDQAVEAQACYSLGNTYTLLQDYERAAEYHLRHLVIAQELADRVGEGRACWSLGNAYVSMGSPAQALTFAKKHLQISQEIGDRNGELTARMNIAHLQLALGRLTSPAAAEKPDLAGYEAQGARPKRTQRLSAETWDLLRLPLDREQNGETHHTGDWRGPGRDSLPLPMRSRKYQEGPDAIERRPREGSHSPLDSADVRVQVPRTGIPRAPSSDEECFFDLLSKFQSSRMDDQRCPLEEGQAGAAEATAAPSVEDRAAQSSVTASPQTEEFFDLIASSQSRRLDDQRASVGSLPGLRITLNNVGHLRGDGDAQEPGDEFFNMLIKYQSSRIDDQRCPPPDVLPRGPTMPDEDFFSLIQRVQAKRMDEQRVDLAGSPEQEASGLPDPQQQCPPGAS
# T6: AGS3 (Homo sapiens, UniProt Q86YR5)
# T6 chain: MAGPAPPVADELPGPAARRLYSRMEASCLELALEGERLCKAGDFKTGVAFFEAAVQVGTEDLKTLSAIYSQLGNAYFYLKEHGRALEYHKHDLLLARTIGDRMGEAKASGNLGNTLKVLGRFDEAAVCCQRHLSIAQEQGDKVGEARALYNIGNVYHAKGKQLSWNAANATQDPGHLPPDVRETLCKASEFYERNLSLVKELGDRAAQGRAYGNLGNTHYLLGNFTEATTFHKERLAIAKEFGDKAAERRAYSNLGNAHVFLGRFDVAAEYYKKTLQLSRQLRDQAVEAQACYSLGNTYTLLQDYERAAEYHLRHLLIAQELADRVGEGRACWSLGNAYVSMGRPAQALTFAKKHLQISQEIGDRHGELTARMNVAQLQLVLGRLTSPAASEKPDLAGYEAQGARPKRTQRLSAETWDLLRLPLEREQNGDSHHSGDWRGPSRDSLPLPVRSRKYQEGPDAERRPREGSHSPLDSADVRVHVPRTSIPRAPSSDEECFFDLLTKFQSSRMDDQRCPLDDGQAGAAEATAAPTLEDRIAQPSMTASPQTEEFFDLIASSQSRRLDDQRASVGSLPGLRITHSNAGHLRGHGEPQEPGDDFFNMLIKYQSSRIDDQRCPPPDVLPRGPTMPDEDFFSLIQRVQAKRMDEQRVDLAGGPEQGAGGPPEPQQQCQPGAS
# T7: LGN (Homo sapiens, UniProt P81274)
# T7 chain: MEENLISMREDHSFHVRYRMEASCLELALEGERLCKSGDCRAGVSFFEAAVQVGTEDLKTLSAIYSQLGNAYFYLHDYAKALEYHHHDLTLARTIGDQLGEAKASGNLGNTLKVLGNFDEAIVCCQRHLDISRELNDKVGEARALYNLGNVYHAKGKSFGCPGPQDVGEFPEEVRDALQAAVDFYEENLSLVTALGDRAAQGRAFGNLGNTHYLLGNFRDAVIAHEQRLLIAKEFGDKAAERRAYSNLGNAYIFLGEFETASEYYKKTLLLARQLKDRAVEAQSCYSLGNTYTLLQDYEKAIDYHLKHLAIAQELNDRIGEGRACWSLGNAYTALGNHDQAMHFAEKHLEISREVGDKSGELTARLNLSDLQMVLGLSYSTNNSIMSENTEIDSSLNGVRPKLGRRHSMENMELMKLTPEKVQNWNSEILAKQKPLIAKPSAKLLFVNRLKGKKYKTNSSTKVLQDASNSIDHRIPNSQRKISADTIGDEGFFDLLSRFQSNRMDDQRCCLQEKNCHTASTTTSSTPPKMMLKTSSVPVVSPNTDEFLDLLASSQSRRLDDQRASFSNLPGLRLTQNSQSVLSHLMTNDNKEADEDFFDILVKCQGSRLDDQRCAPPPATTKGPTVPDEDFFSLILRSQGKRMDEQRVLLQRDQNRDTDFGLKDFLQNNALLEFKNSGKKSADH
# Experiments:
# Gαi3⋅GDP [1] = biological target: T1, Gαi3⋅GDP; test: ITC; GDP
# Gαi3⋅GDP [2] = biological target: T1, Gαi3⋅GDP; test: ITC
# FL-LGN-4E = biological target: T2, FL-LGN-4E; test: ITC
# LGN-TPR (1–409) = biological target: T3, LGN-TPR (1–409); test: ITC
# AGS3-L (−23–405) = biological target: T4, AGS3-L (−23–405); test: ITC
# FL-AGS3-4E = biological target: T5, FL-AGS3-4E; test: ITC
# AGS3 = biological target: T6, AGS3
# LGN = biological target: T7, LGN
Kd (Gαi3⋅GDP [1]) [nM],Kd (Gαi3⋅GDP [2]) [nM],Binder,further results
200,,DEDFFSLILRSQAKRMDEQRVLL (domain or fragment) [LGN GL4 motif],
280,,AGS3-GL1234 (470–631) (domain or fragment) EECFFDLLSKFQSSRMDDQRCPLEEGQAGAAEATAAPSVEDRAAQSSVTASPQTEEFFDLIASSQSRRLDDQRASVGSLPGLRITLNNVGHLRGDGDAQEPGDEFFNMLIKYQSSRIDDQRCPPPDVLPRGPTMPDEDFFSLIQRVQAKRMDEQRVDLAGSP,
260,,LGN-GL1234 (483–650) (domain or fragment) DEGFFDLLRRFQSNRMDDQRCHLQGNCRTTSTAAASATPKLMKAPSVSVVSPNTDEFLDLLASSQSRRLDDQRASFSNLPGLRLTKGNSPSVLERLMTNDKKEPDEDFFDILVKCQGSRLDDQRCAPPSAATKGPTVPDEDFFSLILRSQAKRMDEQRVLLQRDPNRD,
40,,DEDFFDILVKCQGSRLDDQRCAP (domain or fragment) [LGN GL3 motif],
300,300,EECFFDLLSKFQSSRMDDQRCPL (domain or fragment) [AGS3 GL1 motif],
,,NSFYMGTCQDEPEQLDDWNRIAELQQR (domain or fragment) [NuMA (1886–1912)],Kd (FL-LGN-4E): 200 nM; Kd (LGN-TPR (1–409)): 630 nM; Kd (AGS3-L (−23–405)): 240 nM; Kd (FL-AGS3-4E): 280 nM
260,260,GDEFFNMLIKYQSSRIDDQRCPP (domain or fragment) [AGS3 GL3 motif],
330,330,DEGFFDLLRRFQSNRMDDQRCHL (domain or fragment) [LGN GL1 motif],
40,41.5,TDEFLDLLASSQSRRLDDQRASF (domain or fragment) [LGN GL2 motif],
40,36.5,TEEFFDLIASSQSRRLDDQRASV (domain or fragment) [AGS3 GL2 motif],
,,WGLWGVQESRRLCCAGHDRCKQALLQIGINMMALPGGRHLDSVTLPGQR,Kd (AGS3): 2270 nM; Kd (LGN): 3920 nM
,,WGLWGVQESRRLCCAGHDRCKQALLQIGINMMALPGGRHLDSVTLPGQR (not fully specified; cysteine pairing not given here),Kd (AGS3): 2290 nM; Kd (LGN): 2620 nM
330,320,DEDFFSLIQRVQAKRMDEQRVDL (domain or fragment) [AGS3 GL4 motif],
